Source: publication PMC10014536

Target: bovine rhodopsin (bovine) (UniProt P02699)
Sequence of UniProt P02699 (P02699 whole entry): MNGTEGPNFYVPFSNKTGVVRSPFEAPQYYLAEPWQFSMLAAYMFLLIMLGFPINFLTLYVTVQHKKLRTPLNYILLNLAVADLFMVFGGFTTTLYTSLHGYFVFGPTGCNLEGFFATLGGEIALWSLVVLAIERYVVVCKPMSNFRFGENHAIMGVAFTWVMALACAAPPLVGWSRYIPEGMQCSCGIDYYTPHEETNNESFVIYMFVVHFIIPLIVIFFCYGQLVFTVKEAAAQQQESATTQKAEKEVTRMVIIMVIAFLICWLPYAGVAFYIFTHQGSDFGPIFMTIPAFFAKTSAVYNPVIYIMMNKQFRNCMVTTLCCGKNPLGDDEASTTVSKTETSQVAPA

- light-evoked second messenger (cAMP) plate reader assay in transfected HEK293 cells, G-protein subtype profile of bovine rhodopsin (Supplementary Figure S5): 10%
Substance: Gso (Gs subunit chimera with a Go tail)
